Experiments:
Test in all cases: SPR, Ab captured, ECD-His analyte
[1] = biological target: T1, human SIRPαV2 extracellular domain + His-tag (CAA71403.1) (human, UniProt P78324 31-373)
T1 construct: also called hSIRPαV2; HuSIRPαV2
Procedure: (§1) The binding affinity of anti-SIRPα antibodies to the various SIRPα analytes is determined by surface plasmon resonance (SPR) using a ProteOn XPR36 (Bio-Rad). The running buffer for this experiment and all dilutions (except where stated) are done in 1×HBS-EP+. […] The sensorchip is deactivated with 1M ethanolamine HCl for 420 sec at a flowrate of 10 μl/min.
(§2) The analyte is injected over the captured antibody for 300 sec at a flowrate of 30 μl/min. The dissociation is done for 600 sec. Two-fold serial dilutions of each SIRP protein (Extracellular Domain+His-Tag) are injected as analyte with the highest concentrations indicated in table 36 below.

[2] = biological target: T2, human SIRPβ1 extracellular domain + His-tag (NP_006056.2) (human, UniProt O00241 30-371)
T2 construct: also called hSIRPβ1; HuSIRPβ1
Procedure: as §1, §2

[3] = biological target: T3, human SIRPγ extracellular domain + His-tag (NP_061026.2) (human, UniProt Q9P1W8 29-360)
T3 construct: also called hSIRPγ; HuSIRPγ
Procedure: as §1, §2

[4] = biological target: T4, human SIRPαV1 extracellular domain + His-tag (NP_542970.1) (human, UniProt P78324 31-373)
T4 construct: also called hSIRPαV1; HuSIRPαV1
Procedure: as §1, §2

[5] = biological target: T5, human SIRPβL/SIRPβ1v3 extracellular domain + His-tag (NP_001129316.1) (human, UniProt Q5TFQ8 30-371)
T5 construct: also called hSIRPβ1v3; HuSIRPβ1v3
Procedure: as §1, §2

T1 sequence (P78324 other isoform, or with tags, fused parts or gaps): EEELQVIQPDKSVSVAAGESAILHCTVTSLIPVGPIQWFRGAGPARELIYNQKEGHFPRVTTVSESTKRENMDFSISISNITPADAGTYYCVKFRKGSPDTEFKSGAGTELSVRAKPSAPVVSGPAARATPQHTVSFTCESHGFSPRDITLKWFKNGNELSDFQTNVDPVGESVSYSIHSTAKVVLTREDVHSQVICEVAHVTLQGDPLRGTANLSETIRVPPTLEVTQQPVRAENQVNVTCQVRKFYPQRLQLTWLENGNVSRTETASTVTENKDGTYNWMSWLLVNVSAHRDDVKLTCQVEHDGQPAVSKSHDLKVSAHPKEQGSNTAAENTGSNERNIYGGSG
T5 sequence (Q5TFQ8 other isoform, or with tags, fused parts or gaps): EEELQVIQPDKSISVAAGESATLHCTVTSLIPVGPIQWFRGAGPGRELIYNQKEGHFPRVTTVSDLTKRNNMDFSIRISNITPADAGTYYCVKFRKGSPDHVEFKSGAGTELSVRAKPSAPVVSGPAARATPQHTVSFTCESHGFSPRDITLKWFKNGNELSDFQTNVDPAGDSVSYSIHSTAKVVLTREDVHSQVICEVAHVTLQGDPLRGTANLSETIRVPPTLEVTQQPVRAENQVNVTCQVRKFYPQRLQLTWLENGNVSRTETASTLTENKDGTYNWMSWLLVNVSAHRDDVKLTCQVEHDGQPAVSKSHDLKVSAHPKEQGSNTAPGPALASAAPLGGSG
T3 sequence (Q9P1W8 29-360): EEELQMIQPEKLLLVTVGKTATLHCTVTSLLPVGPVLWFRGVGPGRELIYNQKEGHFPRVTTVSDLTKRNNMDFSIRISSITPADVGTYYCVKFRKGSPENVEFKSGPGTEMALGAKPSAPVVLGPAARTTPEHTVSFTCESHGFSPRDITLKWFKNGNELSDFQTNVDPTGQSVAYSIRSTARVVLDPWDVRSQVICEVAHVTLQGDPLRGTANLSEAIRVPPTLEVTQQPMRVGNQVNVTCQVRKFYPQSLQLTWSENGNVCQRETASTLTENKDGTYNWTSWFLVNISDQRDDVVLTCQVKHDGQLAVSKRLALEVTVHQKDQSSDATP
T2 sequence (O00241 other isoform, or with tags, fused parts or gaps): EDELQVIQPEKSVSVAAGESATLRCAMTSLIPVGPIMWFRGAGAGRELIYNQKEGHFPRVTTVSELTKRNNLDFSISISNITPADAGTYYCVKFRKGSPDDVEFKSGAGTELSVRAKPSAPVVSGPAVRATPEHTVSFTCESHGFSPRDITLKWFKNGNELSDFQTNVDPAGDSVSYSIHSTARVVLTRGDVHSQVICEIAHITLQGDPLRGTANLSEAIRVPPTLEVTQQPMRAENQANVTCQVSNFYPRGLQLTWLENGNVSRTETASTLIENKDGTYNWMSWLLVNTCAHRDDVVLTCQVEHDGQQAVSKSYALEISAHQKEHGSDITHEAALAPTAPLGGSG
T4 sequence (P78324 other isoform, or with tags, fused parts or gaps): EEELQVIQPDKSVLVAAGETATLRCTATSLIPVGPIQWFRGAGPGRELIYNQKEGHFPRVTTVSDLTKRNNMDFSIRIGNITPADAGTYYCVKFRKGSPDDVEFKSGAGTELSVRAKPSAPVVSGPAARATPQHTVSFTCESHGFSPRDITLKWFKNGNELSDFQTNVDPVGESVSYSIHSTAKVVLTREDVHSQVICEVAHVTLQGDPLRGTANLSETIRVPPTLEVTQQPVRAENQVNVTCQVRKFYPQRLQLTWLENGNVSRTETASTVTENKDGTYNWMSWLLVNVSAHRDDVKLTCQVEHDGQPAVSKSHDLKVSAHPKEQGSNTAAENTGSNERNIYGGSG

Row | Binder | Kd [1] | binding result [2] | binding result [3] | Kd [4] | Kd [5] | Kd [2]
1 | Antibody E20 (antibody, human IgG1, kappa, L234A L235A, V domains shown) VH: QVQLQESGPGLVRPSETLSLTCTVSGGSIRNYYWSWIRQPPGKGLEWIGFIYYTGRTFYNPSLKSRVTISLDMSINQFSLKMTSVTAADTAVYYCARVRAYSGIGLDGTDVWGQGTTVTVSS VL: DIVMTQSPLSLPVTPGEPASISCKSSQSLLYSNAYNYLDWYLQRPGQSPQLLIYLGSNRASGVPDRFSGSGSGTDFTLKISRVEAEDVGVYYCMQALQTPLTFGGGTKVEIKR | 1.11 nM | – | no binding (tested: 1000 nM) | 3.42 nM | 8.48 nM | 435 nM
2 | Antibody E19 (antibody, human IgG1, kappa, L234A L235A, V domains shown) VH: QVQLQESGPGLVRPSETLSLTCTVSGGSIRNYYWSWIRQPPGKGLEWIGFIYYTGRTFYNPSLKSRVTISLDMSKNQFSLKMTSVTAADTAVYYCARVRAYSGIGLDGTDVWGQGTTVTVSS VL: DIVMTQSPLSLPVTPGEPASISCKSSQSLLYSNGYAYLDWYLQRPGQSPQLLIYQGSNRASGVPDRFSGSGSGTDFTLKISRVEAEDVGVFYCMQALQTPLTFGGGTKVEIKR | 0.97 nM | – | no binding (tested: 1000 nM) | 2.52 nM | 4.74 nM | 1660 nM
3 | Antibody E21 (antibody, human IgG1, kappa, L234A L235A, V domains shown) VH: QVQLQESGPGLVRPSETLSLTCTVSGGSIRNYYWSWIRQPPGKGLEWIGFIYYTGRTFYNPSLKSRVTISLDMSKNQFSLKMTSVTAADTAVYYCARVRAYSGIGLDGTDVWGQGTTVTVSS VL: DIVMTQSPLSLPVTPGEPASISCKSSQSLLYSNAYNYLDWYLQRPGQSPQLLIYLGSNRASGVPDRFSGSGSGTDFTLKISRVEAEDVGVYYCMQALQTPLTFGGGTKVEIKR | 1.39 nM | no binding (tested: 1000 nM) | no binding (tested: 1000 nM) | 4.46 nM | 8.84 nM | –
4 | Antibody E13 (antibody, human IgG1, kappa, L234A L235A, V domains shown) VH: QVQLQESGPGLVRPSETLSLTCTVSGGSIRNYYWSWIRQPPGKGLEWIGFIYYTGRTFYNPSLKSRVTISLDMSINQFSLKMTSVTAADTAVYYCARVRAYSGIGLDGTDVWGQGTTVTVSS VL: DIVMTQSPLSLPVTPGEPASISCKSSQSLLYSNGYAYLDWYLQRPGQSPQLLIYQGSNRASGVPDRFSGSGSGTDFTLKISRVEAEDVGVFYCMQALQTPLTFGGGTKVEIKR | 0.69 nM | no binding (tested: 1000 nM) | no binding (tested: 1000 nM) | 1.7 nM | 4.17 nM | –
5 | Antibody E12 (antibody, human IgG1, kappa, L234A L235A, V domains shown) VH: QVQLQESGPGLVRPSETLSLTCTVSGGSIRNYYWSWIRQPPGKGLEWIGFIYYNGRTFYNPSLKSRVTISLDMSKNQFSLKMTSVTAADTAVYYCARVRAYSGIGLDGTDVWGQGTTVTVSS VL: DIVMTQSPLSLPVTPGEPASISCKSSQSLLYSNAYNYLDWYLQRPGQSPQLLIYLGSNRASGVPDRFSGSGSGTDFTLKISRVEAEDVGVYYCMQALQTPLTFGGGTKVEIKR | 1.26 nM | – | no binding (tested: 1000 nM) | 1.67 nM | 3.43 nM | 1670 nM

Continued by falling Kd [1], values first:

Row | Kd [1] | binding result [2] | binding result [3] | Kd [4] | Kd [5] | Kd [2] | Binder
6 | 1.36 nM | no binding (tested: 1000 nM) | no binding (tested: 1000 nM) | 1.84 nM | 4.8 nM | – | Antibody E14 (antibody, human IgG1, kappa, L234A L235A, V domains shown) VH: QVQLQESGPGLVRPSETLSLTCTVSGGSIRNYYWSWIRQPPGKGLEWIGFIYYNGRTFYNPSLKSRVTISLDKSKNQFSLKMTSVTAADTAVYYCARVRAYSGIGLDGTDVWGQGTTVTVSS VL: DIVMTQSPLSLPVTPGEPASISCKSSQSLLYSNAYNYLDWYLQRPGQSPQLLIYLGSNRASGVPDRFSGSGSGTDFTLKISRVEAEDVGVYYCMQALQTPLTFGGGTKVEIKR
7 | 0.941 nM | no binding (tested: 1000 nM) | no binding (tested: 1000 nM) | 1.22 nM | 3.16 nM | – | Antibody E9 (antibody, human IgG1, kappa, L234A L235A, V domains shown) VH: QVQLQESGPGLVRPSETLSLTCTVSGGSIRNYYWSWIRQPPGKGLEWIGFIYYNGRTFYNPSLKSRVTISLDMSINQFSLKMTSVTAADTAVYYCARVRAYSGIGLDGTDVWGQGTTVTVSS VL: DIVMTQSPLSLPVTPGEPASISCKSSQSLLYSNAYNYLDWYLQRPGQSPQLLIYLGSNRASGVPDRFSGSGSGTDFTLKISRVEAEDVGVYYCMQALQTPLTFGGGTKVEIKR
8 | 0.898 nM | no binding (tested: 1000 nM) | no binding (tested: 1000 nM) | 2.46 nM | 4.8 nM | – | Antibody E18 (antibody, human IgG1, kappa, L234A L235A, V domains shown) VH: QVQLQESGPGLVRPSETLSLTCTVSGGSIRNYYWSWIRQPPGKGLEWIGFIYYTGRTFYNPSLKSRVTISLDMSKNQFSLKMTSVTAADTAVYYCARVRAYSGIGLDGTDVWGQGTTVTVSS VL: DIVMTQSPLSLPVTPGEPASISCKSSQSLLYSNGYAYLDWYLQRPGQSPQLLIYLGSNRASGVPDRFSGSGSGTDFTLKISRVEAEDVGVYYCMQALQTPLTFGGGTKVEIKR
9 | 0.797 nM | no binding (tested: 1000 nM) | no binding (tested: 1000 nM) | 2.36 nM | 5.32 nM | – | Antibody E17 (antibody, human IgG1, kappa, L234A L235A, V domains shown) VH: QVQLQESGPGLVRPSETLSLTCTVSGGSIRNYYWSWIRQPPGKGLEWMGFIYDNGRTFYNPSLKSRVTISLDMSMNQFSLKMTSVTAADTAVYYCARVRAYSGIGLDGTDVWGQGTTVTVSS VL: DIVMTQSPLSLPVTPGEPASISCKSSQSLLYSNAYNYLDWYLQRPGQSPQLLIYLGSNRASGVPDRFSGSGSGTDFTLKISRVEAEDVGVYYCMQALQTPLTFGGGTKVEIKR
10 | 0.737 nM | no binding (tested: 1000 nM) | no binding (tested: 1000 nM) | 1.91 nM | 4.56 nM | – | Antibody E15 (antibody, human IgG1, kappa, L234A L235A, V domains shown) VH: QVQLQESGPGLVRPSETLSLTCTVSGGSIRNYYWSWIRQPPGKGLEWIGFIYYTGRTFYNPSLKSRVTISLDMSINQFSLKMTSVTAADTAVYYCARVRAYSGIGLDGTDVWGQGTTVTVSS VL: DIVMTQSPLSLPVTPGEPASISCKSSQSLLYSNGYAYLDWYLQRPGQSPQLLIYLGSNRASGVPDRFSGSGSGTDFTLKISRVEAEDVGVYYCMQALQTPLTFGGGTKVEIKR
